According to US20070212679:

Biological target: T1, human GST-E1 (Boston Biochem), P22314
T1 chain: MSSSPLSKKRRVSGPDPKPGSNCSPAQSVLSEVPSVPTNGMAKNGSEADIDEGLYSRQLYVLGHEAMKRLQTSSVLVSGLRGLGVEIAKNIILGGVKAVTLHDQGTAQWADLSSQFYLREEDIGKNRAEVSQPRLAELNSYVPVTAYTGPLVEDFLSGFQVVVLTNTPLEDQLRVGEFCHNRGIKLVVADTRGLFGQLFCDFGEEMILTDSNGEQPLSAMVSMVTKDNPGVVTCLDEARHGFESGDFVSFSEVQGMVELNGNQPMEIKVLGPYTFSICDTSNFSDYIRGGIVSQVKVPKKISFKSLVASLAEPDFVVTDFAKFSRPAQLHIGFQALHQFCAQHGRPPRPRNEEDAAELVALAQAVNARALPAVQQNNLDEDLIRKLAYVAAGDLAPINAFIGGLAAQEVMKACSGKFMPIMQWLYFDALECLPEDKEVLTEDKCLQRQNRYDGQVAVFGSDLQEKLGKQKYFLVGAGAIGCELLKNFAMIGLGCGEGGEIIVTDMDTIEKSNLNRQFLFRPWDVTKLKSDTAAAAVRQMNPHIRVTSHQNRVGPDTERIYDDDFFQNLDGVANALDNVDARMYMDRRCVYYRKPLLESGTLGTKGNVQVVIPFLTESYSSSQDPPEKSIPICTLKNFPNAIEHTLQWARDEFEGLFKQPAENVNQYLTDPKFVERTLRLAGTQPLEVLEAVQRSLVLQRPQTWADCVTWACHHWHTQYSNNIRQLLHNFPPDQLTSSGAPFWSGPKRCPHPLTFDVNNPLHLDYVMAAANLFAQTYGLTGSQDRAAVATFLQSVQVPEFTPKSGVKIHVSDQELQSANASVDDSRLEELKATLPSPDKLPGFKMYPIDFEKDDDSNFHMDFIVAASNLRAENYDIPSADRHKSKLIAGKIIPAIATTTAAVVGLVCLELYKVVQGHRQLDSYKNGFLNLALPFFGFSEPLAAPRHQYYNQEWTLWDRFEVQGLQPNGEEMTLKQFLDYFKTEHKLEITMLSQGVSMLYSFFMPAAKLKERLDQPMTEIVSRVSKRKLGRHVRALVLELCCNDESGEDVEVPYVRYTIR

B1: His6-Parkin (full-length human Parkin fused to an N-terminal histidine tag, from E. coli, refolded) (protein)
chain: IYICTIIIIISSGLVPRGSGMKETAAAKFERQHMDSPDLGTDDDDKAMADIGSAATMIVFVRFNSSHGFPVEVDSDTSIFQLKEVVAKRQGVPADQLRVIFAGKELRNDWTVQNCDLDQQSIVHIVQRPWRKGQEMNATGGDDPRNAAGGCEREPQSLTRVDLSSSVLPGDSVGLAVILHTDSRKDSPPAGSPAGRSIYNSFYVYCKGPCQRVQPGKLRVQCSTCRQATLTLTQGPSCWDDVLIPNRMSGECQSPHCPGTSAEFFFKCGAHPTSDKETPVALHLIATNSRNITCITCTDVRSPVLVFQCNSRHVICLDCFHLYCVTRLNDRQFVHDPQLGYSLPCVAGCPNSLIKELHHFRILGEEQYNRYQQYGAEECVLQMGGVLCPRPGCGAGLLPEPDQRKVTCEGGNGLGCGFAFCRECKEAYHEGECSAVFEASGTTTQAYRVDERAAEQARWEAASKETIKKTTKPCPRCHVPVEKNGGCMHMKCPQPQCRLEWCWNCGCEWNRVCMGDHWFDV
ubiquitination of Parkin in the absence of UbcH7 (biotin-ubiquitin detected on blot with NeutrAvidin-HRP): some reaction product was seen in the absence of UbcH7 when Parkin was incubated with E1 and ubiquitin for 90 minutes
